Laboratory results from the Human Domainome abundance scans (Beltran et al. 2025).
± gives the uncertainty stated by the source.

B1: Glucocorticoid receptor, residues 419 to 494; numbered along this chain, P04150 (parent)
chain: KLCLVCSDEASGCHYGVLTCGSCKVFFKRAVEGQHNYLCAGRNDCIIDKIRRKNCPACRYRKCLQAGMNLEARKTK

Variants of: B1
Test: abundance fitness (aPCA) (normalised: wild type 0, dead -1); higher = more abundant; growth selection in yeast, the domain comes from the species named
Settings: Homo sapiens

| Variant | abundance fitness |
| --- | --- |
| KLCLVCSDEASGCHYGVLTCGSCKVFFKREVEGQHNYLCAGRNDCIIDKIRRKNCPACRYRKCLQAGMNLEARKTK [A30E] | -0.142 ± 0.043 |
| KLCLVCSDEASGCHYGVLTCGSCKVFFKRKVEGQHNYLCAGRNDCIIDKIRRKNCPACRYRKCLQAGMNLEARKTK [A30K] | -0.165 ± 0.062 |
| KLCLVCSDEASGCHYGVLTCGSCKVFFKRPVEGQHNYLCAGRNDCIIDKIRRKNCPACRYRKCLQAGMNLEARKTK [A30P] | -0.907 ± 0.19 |
| KLCLVCSDEASGCHYGVLTCGSCKVFFKRMVEGQHNYLCAGRNDCIIDKIRRKNCPACRYRKCLQAGMNLEARKTK [A30M] | 0.051 ± 0.053 |
| KLCLVCSDEASGCHYGVLTCGSCKVFFKRGVEGQHNYLCAGRNDCIIDKIRRKNCPACRYRKCLQAGMNLEARKTK [A30G] | -0.274 ± 0.038 |
| KLCLVCSDEASGCHYGVLTCGSCKVFFKRRVEGQHNYLCAGRNDCIIDKIRRKNCPACRYRKCLQAGMNLEARKTK [A30R] | -0.457 ± 0.045 |
| KLCLVCSDEASGCHYGVLTCGSCKVFFKRNVEGQHNYLCAGRNDCIIDKIRRKNCPACRYRKCLQAGMNLEARKTK [A30N] | -0.283 ± 0.098 |
| KLCLVCSDEASGCHYGVLTCGSCKVFFKRSVEGQHNYLCAGRNDCIIDKIRRKNCPACRYRKCLQAGMNLEARKTK [A30S] | -0.08 ± 0.042 |
| KLCLVCSDEASGCHYGVLTCGSCKVFFKRFVEGQHNYLCAGRNDCIIDKIRRKNCPACRYRKCLQAGMNLEARKTK [A30F] | -0.142 ± 0.099 |
| KLCLVCSDEASGCHYGVLTCGSCKVFFKRTVEGQHNYLCAGRNDCIIDKIRRKNCPACRYRKCLQAGMNLEARKTK [A30T] | -0.064 ± 0.05 |
| KLCLVCSDEASGCHYGVLTCGSCKVFFKRIVEGQHNYLCAGRNDCIIDKIRRKNCPACRYRKCLQAGMNLEARKTK [A30I] | -0.071 ± 0.083 |
| KLCLVCSDEASGCHYGVLTCGSCKVFFKRYVEGQHNYLCAGRNDCIIDKIRRKNCPACRYRKCLQAGMNLEARKTK [A30Y] | -0.102 ± 0.1 |
| KLCLVCSDEASGCHYGVLTCGSCKVFFKRHVEGQHNYLCAGRNDCIIDKIRRKNCPACRYRKCLQAGMNLEARKTK [A30H] | -0.292 ± 0.09 |
| KLCLVCSDEASGCHYGVLTCGSCKVFFKRVVEGQHNYLCAGRNDCIIDKIRRKNCPACRYRKCLQAGMNLEARKTK [A30V] | 0.026 ± 0.037 |
| KLCLVCSDEASGCHYGVLTCGSCKVFFKRQVEGQHNYLCAGRNDCIIDKIRRKNCPACRYRKCLQAGMNLEARKTK [A30Q] | -0.192 ± 0.049 |
| KLCLVCSDEASGCHYGVLTCGSCKVFFKRWVEGQHNYLCAGRNDCIIDKIRRKNCPACRYRKCLQAGMNLEARKTK [A30W] | -0.183 ± 0.042 |
| KLCLVCSDEASGCHYGVLTCGSCKVFFKRDVEGQHNYLCAGRNDCIIDKIRRKNCPACRYRKCLQAGMNLEARKTK [A30D] | -0.701 ± 0.2 |
| KLCLVCSDEASGCHYGVLTCGSCKVFFKRLVEGQHNYLCAGRNDCIIDKIRRKNCPACRYRKCLQAGMNLEARKTK [A30L] | -0.32 ± 0.043 |

| Variant | abundance fitness |
| --- | --- |
| KLCLVCSDEASGCHYGVLTCGSCKVFFKWAVEGQHNYLCAGRNDCIIDKIRRKNCPACRYRKCLQAGMNLEARKTK [R29W] | -0.095 ± 0.046 |
| KLCLVCSDEASGCHYGVLTCGSCKVFFKYAVEGQHNYLCAGRNDCIIDKIRRKNCPACRYRKCLQAGMNLEARKTK [R29Y] | -0.072 ± 0.1 |
| KLCLVCSDEASGCHYGVLTCGSCKVFFKSAVEGQHNYLCAGRNDCIIDKIRRKNCPACRYRKCLQAGMNLEARKTK [R29S] | -0.056 ± 0.039 |
| KLCLVCSDEASGCHYGVLTCGSCKVFFKTAVEGQHNYLCAGRNDCIIDKIRRKNCPACRYRKCLQAGMNLEARKTK [R29T] | -0.029 ± 0.056 |
| KLCLVCSDEASGCHYGVLTCGSCKVFFKQAVEGQHNYLCAGRNDCIIDKIRRKNCPACRYRKCLQAGMNLEARKTK [R29Q] | -0.072 ± 0.045 |
| KLCLVCSDEASGCHYGVLTCGSCKVFFKRAVVGQHNYLCAGRNDCIIDKIRRKNCPACRYRKCLQAGMNLEARKTK [E32V] | -0.051 ± 0.036 |
| KLCLVCSDEASGCHYGVLTCGSCKVFFKRAVHGQHNYLCAGRNDCIIDKIRRKNCPACRYRKCLQAGMNLEARKTK [E32H] | -0.058 ± 0.073 |
| KLCLVCSDEASGCHYGVLTCGSCKVFFKRAVSGQHNYLCAGRNDCIIDKIRRKNCPACRYRKCLQAGMNLEARKTK [E32S] | -0.049 ± 0.034 |
| KLCLVCSDEASGCHYGVLTCGSCKVFFKRAVNGQHNYLCAGRNDCIIDKIRRKNCPACRYRKCLQAGMNLEARKTK [E32N] | -0.059 ± 0.059 |
| KLCLVCSDEASGCHYGVLTCGSCKVFFKRAVYGQHNYLCAGRNDCIIDKIRRKNCPACRYRKCLQAGMNLEARKTK [E32Y] | -0.131 ± 0.065 |
| KLCLVCSDEASGCHYGVLTCGSCKVFFKRAVWGQHNYLCAGRNDCIIDKIRRKNCPACRYRKCLQAGMNLEARKTK [E32W] | -0.201 ± 0.046 |
| KLCLVCSDEASGCHYGVLTCGSCKVFFKRAVTGQHNYLCAGRNDCIIDKIRRKNCPACRYRKCLQAGMNLEARKTK [E32T] | -0.007 ± 0.041 |
| KLCLVCSDEASGCHYGVLTCGSCKVFFKRAVKGQHNYLCAGRNDCIIDKIRRKNCPACRYRKCLQAGMNLEARKTK [E32K] | 0.01 ± 0.049 |
| KLCLVCSDEASGCHYGVLTCGSCKVFFKRAVQGQHNYLCAGRNDCIIDKIRRKNCPACRYRKCLQAGMNLEARKTK [E32Q] | -0.08 ± 0.046 |
| KLCLVCSDEASGCHYGVLTCGSCKVFFKRAVPGQHNYLCAGRNDCIIDKIRRKNCPACRYRKCLQAGMNLEARKTK [E32P] | -0.388 ± 0.073 |
| KLCLVCSDEASGCHYGVLTCGSCKVFFKRAVRGQHNYLCAGRNDCIIDKIRRKNCPACRYRKCLQAGMNLEARKTK [E32R] | -0.021 ± 0.032 |
| KLCLVCSDEASGCHYGVLTCGSCKVFFKRAVCGQHNYLCAGRNDCIIDKIRRKNCPACRYRKCLQAGMNLEARKTK [E32C] | -0.031 ± 0.056 |
| KLCLVCSDEASGCHYGVLTCGSCKVFFKRAVGGQHNYLCAGRNDCIIDKIRRKNCPACRYRKCLQAGMNLEARKTK [E32G] | -0.04 ± 0.036 |
